Test results published in patent publication US20160333113A1 (NATIONAL CANCER CENTER, published 2016).

Tests used:
[1] = target: recombinant hTF (human, UniProt P13726 33-251); test: cell-based or functional assay
[2] = target: T1, human tissue factor (hTF), purified, construct not stated (human, UniProt P13726 33-251, limits assumed); test: SPR, Biacore 2000, antibody immobilized on CM5 chip, purified hTF in flow
T1 construct: The SPR and the chimeric-antibody ELISA say only 'purified hTF' / 'hTF'; also called purified hTF; human TF
Experimental: The anti-hTF monoclonal antibodies (No. 1849 and No. 1859) were each immobilized on the surface of a Biacore CM5 chip. The CM5 chip, which had each antibody immobilized thereon, was set in a SPR device, and an antigen-containing buffer containing purified hTF was allowed to flow through its flow path. The dissociation constant between each of the antibodies and hTF was determined by this measurement system. It should be noted that the measurement conditions were as follows.

Row | Prolonged coagulation time ratio (prothrombin time ratio, PBS control = 1) [1] | Kd [2] | Binder
1 | 5.54 ratio relative to PBS | 0.0914 nM | anti-hTF monoclonal antibody (No. 1849) (antibody, IgG2b, V domains shown, Rat hybridoma IgG purified on Protein G; constant regions are not; also called rat anti-hTF monoclonal antibody (No. 1849)) VH: EVQLVESGGGLVQSGRSLKLSCAASGFTFSDYNMAWIRQAPKKGLEWVAAIIYDGTRTYYRDSVRGRFTISRDNAKSTLYLQVDSLRSEDTATYYCATGDSYTNFAYWGQGTLVTVSS VL: EIVLTQSPTTMAASPGEKVTLTCRASSSLSYMHWYQQRSGTSPKLWIYETSKLASGVPNRFSGSGSGTSFSLTIDSMETEDAATYYCQQGNSYPRTFGGGTKLELK
2 | 1.22 ratio relative to PBS | 0.189 nM | anti-hTF monoclonal antibody (No. 1859) (antibody, IgG2a, V domains shown, Rat hybridoma IgG purified on Protein G; constant regions are not) VH: EVMLVESGPGLVQPSQTLSLICTVSGFSLTDYSVHWVRQPPGKGLEWVGVMWSGGTTTFNSGLKSRLSISRDTSKSQVFLKMYSLRTEDTAVYYCTRERAGSPLNWFAYWGQGTLVTVSS VL: DIVMTQSPASLSASLEEIVTITCQASQDIGNYLSWYQQKPGKSPHLLIHSSTSLADGVPSRFSGSRSGTQYSLKINRLQVEDTGVYYCLQHYSGSRTFGGGTNLELK
